IntAct's records for PubMed 29039417

B1: Protein PTHB1 (Homo sapiens), Q3SYG4 (parent)
chain: MSLFKARDWWSTILGDKEEFDQGCLCLANVDNSGNGQDKIIVGSFMGYLRIFSPHPAKTGDGAQAEDLLLEVDLRDPVLQVEVGKFVSGTEMLHLAVLHSRKLCVYSVSGTLGNVEHGNQCQMKLMYEHNLQRTACNMTYGSFGGVKGRDLICIQSMDGMLMVFEQESYAFGRFLPGFLLPGPLAYSSRTDSFLTVSSCQQVESYKYQVLAFATDADKRQETEQQKLGSGKRLVVDWTLNIGEQALDICIVSFNQSASSVFVLGERNFFCLKDNGQIRFMKKLDWSPSCFLPYCSVSEGTINTLIGNHNNMLHIYQDVTLKWATQLPHIPVAVRVGCLHDLKGVIVTLSDDGHLQCSYLGTDPSLFQAPNVQSRELNYDELDVEMKELQKIIKDVNKSQGVWPMTEREDDLNVSVVVSPNFDSVSQATDVEVGTDLVPSVTVKVTLQNRVILQKAKLSVYVQPPLELTCDQFTFEFMTPDLTRTVSFSVYLKRSYTPSELEGNAVVSYSRPTDRNPDGIPRVIQCKFRLPLKLICLPGQPSKTASHKITIDTNKSPVSLLSLFPGFASQSDDDQVNVMGFHFLGGARITVLASKTSQRYRIQSEQFEDLWLITNELILRLQEYFEKQGVKDFACSFSGSIPLQEYFELIDHHFELRINGEKLEELLSERAVQFRAIQRRLLARFKDKTPAPLQHLDTLLDGTYKQVIALADAVEENQGNLFQSFTRLKSATHLVILLIALWQKLSADQVAILEAAFLPLQEDTQELGWEETVDAAISHLLKTCLSKSSKEQALNLNSQLNIPKDTSQLKKHITLLCDRLSKGGRLCLSTDAAAPQTMVMPGGCTTIPESDLEERSVEQDSTELFTNHRHLTAETPRPEVSPLQGVSE
partner: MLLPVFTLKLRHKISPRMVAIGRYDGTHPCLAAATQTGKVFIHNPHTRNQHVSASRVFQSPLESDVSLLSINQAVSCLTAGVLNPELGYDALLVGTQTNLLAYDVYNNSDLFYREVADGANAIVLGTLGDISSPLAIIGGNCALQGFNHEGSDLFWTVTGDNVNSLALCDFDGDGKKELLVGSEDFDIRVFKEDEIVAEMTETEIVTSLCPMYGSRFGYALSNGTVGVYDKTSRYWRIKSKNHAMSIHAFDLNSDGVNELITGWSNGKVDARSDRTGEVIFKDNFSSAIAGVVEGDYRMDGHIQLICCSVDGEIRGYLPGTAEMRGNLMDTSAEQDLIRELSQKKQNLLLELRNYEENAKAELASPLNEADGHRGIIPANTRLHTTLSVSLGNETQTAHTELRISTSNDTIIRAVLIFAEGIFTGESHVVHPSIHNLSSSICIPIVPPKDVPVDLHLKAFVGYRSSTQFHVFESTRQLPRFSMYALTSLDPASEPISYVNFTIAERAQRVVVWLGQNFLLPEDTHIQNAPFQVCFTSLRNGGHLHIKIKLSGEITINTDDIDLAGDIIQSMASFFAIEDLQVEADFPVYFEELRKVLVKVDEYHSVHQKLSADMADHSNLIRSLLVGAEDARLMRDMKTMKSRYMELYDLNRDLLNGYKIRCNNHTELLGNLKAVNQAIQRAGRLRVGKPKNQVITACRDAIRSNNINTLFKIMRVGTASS

Variants of: B1
Details: with bbs2_human BBS2, Q9BXC9

Variant | effect of a mutation on the interaction
L616A | with no effect
L616K | with no effect
L616E | with no effect
Q597R | disrupting interaction strength
Q597K | with no effect
Q597A | with no effect
Q597E | with no effect
E615A | with no effect
E615K | with no effect
Y623K | with no effect
Y623E | with no effect
Y623A | with no effect
T589E | with no effect
T589K | with no effect
T589A | with no effect
T589S | disrupting interaction strength
E607K | with no effect
E607A | with no effect
Q602L | disrupting interaction strength
Q602E | with no effect
Q602K | with no effect
Q602A | with no effect
R598L | disrupting interaction strength

Variant | effect of a mutation on the interaction
R598A | with no effect
R598K | with no effect
R598E | with no effect
S596A | with no effect
S596E | with no effect
S596K | with no effect
S593K | with no effect
S593A | with no effect
S593E | with no effect
L591E | with no effect
L591A | with no effect
L591K | with no effect
E604A | with no effect
E604K | with no effect
K594A | with no effect
K594E | with no effect
R600G | disrupting interaction strength
R600E | with no effect
R600A | with no effect
R600K | with no effect
T595K | with no effect
T595I | disrupting interaction strength
T595A | with no effect

Variant | effect of a mutation on the interaction
T595S | disrupting interaction strength
T595E | with no effect
F624E | with no effect
F624A | with no effect
R619E | with no effect
R619A | with no effect
R619K | with no effect
S603E | with no effect
S603K | with no effect
S603A | with no effect
L611A | with no effect
L611K | with no effect
L611E | with no effect
Y599E | with no effect
Y599K | with no effect
Y599A | with no effect
A592E | with no effect
A592K | with no effect
W610K | with no effect
W610E | with no effect
W610A | with no effect
I617E | with no effect
I617A | with no effect

Variant | effect of a mutation on the interaction
I617K | with no effect
Q621K | with no effect
Q621E | with no effect
Q621A | with no effect
L609K | with no effect
L609A | with no effect
L609E | with no effect
D608E | with no effect
D608K | with no effect
D608A | with no effect
Q605K | with no effect
Q605A | with no effect
Q605E | with no effect
L618A | with no effect
L618K | with no effect
L618E | with no effect
E622A | with no effect
E622K | with no effect
L620A | with no effect
L620E | with no effect
L620K | with no effect
N614K | with no effect
N614E | with no effect

Variant | effect of a mutation on the interaction
N614A | with no effect
I601A | with no effect
I601K | with no effect
I601E | with no effect
F606A | with no effect
F606K | with no effect
F606E | with no effect
I612K | with no effect
I612E | with no effect
I612A | with no effect
V590A | with no effect
V590K | with no effect
V590E | with no effect
T613I | disrupting interaction strength
T613E | with no effect
T613K | with no effect
T613A | with no effect
I588A | with no effect
I588E | with no effect
I588K | with no effect

More lines, now with the values ahead:

effect of a mutation on the interaction | Variant
with no effect | V629A
with no effect | V629E
with no effect | V629K
with no effect | K626A
with no effect | K626E
with no effect | F646A
with no effect | F646K
with no effect | F646E
with no effect | P641A
with no effect | P641E
with no effect | P641K
with no effect | G638E
with no effect | G638K
with no effect | G638A
with no effect | I640A
with no effect | I640K
with no effect | I640E
with no effect | F632K
with no effect | F632E
with no effect | F632A
with no effect | G628K
with no effect | G628A
disrupting interaction strength | G628E
with no effect | D631A

effect of a mutation on the interaction | Variant
with no effect | D631E
with no effect | D631K
disrupting interaction strength | F624N
with no effect | F624K
with no effect | E647K
with no effect | E647A
with no effect | C634K
with no effect | C634A
with no effect | C634E
with no effect | Y645K
with no effect | Y645A
with no effect | Y645E
with no effect | I649A
with no effect | E625K
with no effect | E625A
with no effect | L642K
with no effect | L642A
with no effect | L642E
with no effect | S635K
with no effect | S635E
with no effect | S635A
with no effect | Q627A
with no effect | Q627E
with no effect | Q627K

effect of a mutation on the interaction | Variant
with no effect | K630A
with no effect | K630E
with no effect | F636K
with no effect | F636A
with no effect | F636E
with no effect | S637A
with no effect | S637E
with no effect | S637K
with no effect | S639K
with no effect | S639A
with no effect | S639E
with no effect | Q643K
with no effect | Q643A
with no effect | Q643E
with no effect | A633E
disrupting interaction strength | A633V
with no effect | A633K
with no effect | L648K
with no effect | L648A
with no effect | L648E
with no effect | E644K
with no effect | E644A
